Measured values reported in patent US9067983B2, “Anti-inflammatory antibodies and uses therefor” (DecImmune Therapeutics, Inc., priority 2009, dated 2015).

Legend:
[1] = target: N2 peptide (N2 region of non-muscle myosin II heavy chain) (Mus musculus, UniProt Q61879); assay: binding of hybridoma antibodies to the N2 peptide in vitro
Description: (§1) A panel of mouse hybridomas were prepared to identify the N2 region of non-muscle myosin II heavy chain. Thus, mice were immunized with the N2 peptide (Ac-LMKNMDPLNDNV (SEQ ID NO: 33)) coupled to a carrier protein (KLH). This region (N2) is highly conserved and identical in mouse and man. […] 12A6 is a IgG2b isotype. Its VH most closely matches the germ line gene 3609.11.169 sequence paired with DH: DSP2/DFL16.1 and its light chain is a V kappa 8-27 with JK1. 21G6 is an IgG1 isotype with its VH matching J558.35; DH: DSP2.6/DSP2.4/DSP2.3 and JH: JH3. Its light chain is V kappa hf24 and JK4.

N2 self-peptide = assay: binding of anti-N2 antibody in vivo in heart after LAD occlusion and reperfusion (confocal microscopy); design: species or system mouse; conditions: B6 mice
Description: Specificity of the anti-N2 antibody. B6 mice were injected i.v. with fluorescently-labeled anti-N2 antibody (12A6) and anti-CD31 antibody prior to 60 min LAD occlusion and 30 min reperfusion. Following treatment, hearts were collected, fixed, and analyzed by confocal microscopy. The area at risk (left ventricle) was compared with the non-risk area (right ventricle). Quantification of the individual antibody staining as well as the merged images both in the area at risk and non-risk area is shown in FIG. 5.

B6 mice = assay: murine myocardial infarction model (1 h LAD occlusion, 24 h reperfusion); type: in vivo, mouse; conditions: pretreatment with 100 ugs of Fab'2 fragment (Fc removed)
Description: as §1
B6 mice were subjected to 1 h LAD occlusion followed by 24 h reperfusion. […] Following reperfusion, both serum troponin-I levels (A) and mouse IgM deposition (B) were analyzed and statistical significance for each was evaluated by Student's t test (FIG. 3).
[…] Serum troponin-I levels were measured after 24 h reperfusion.

binding to the N2 peptide in vitro [1]: bind the N2 peptide
B1: 21G6: murine anti-N2 IgG1 produced by hybridoma PTA-9393; VH SEQ ID NO: 14, VL SEQ ID NO: 20 (antibody, listed as Mus sp., V domains shown)
VH: QVQLQESGAELVKPGASVKLSCKASGYTFTSYYMYWVKQRPGQGLEWIGGINPSNGGTNFNEKFKSKATLTVDKSSSTAYMQLSSLTSEDSAVYYCTRWGYDREWFAYWGQGTLVTVSA
VL: DIVMTQAAPSVPVTPGESVSISCRSSKSLLHSNGNTYLYWFLQRPGQSPQVLIYRMSNLASGVPDRFSGSGSGTAFTLRISRVEAEDVGVYYCMQHLEYPFTFGSGTKLEIKR
binding to the N2 self-peptide in vivo (N2 self-peptide): bind the N2 peptide
ischemia reperfusion injury (B6 mice): blocks ischemia reperfusion injury
